Tests used:
Experiment in all cases: cell-based or functional assay
[1] = target: Env of the clade B HIV-1 pseudoviruses of the cross-clade 162-pseudovirus panel (n = 31)
[2] = target: Env of the clade C HIV-1 pseudoviruses of the cross-clade 162-pseudovirus panel (n = 27)
[3] = target: Env of the clade D HIV-1 pseudoviruses of the cross-clade 162-pseudovirus panel (n = 25)
[4] = target: HIV-1 93UG077 envelope glycoprotein (Env) (HIV-1)
[5] = target: HIV-1 APV17 envelope glycoprotein (Env) (HIV-1)
[6] = target: HIV-1 APV6 envelope glycoprotein (Env) (HIV-1)
[7] = target: HIV-1 Env of isolate 92WR020 (HIV-1)
[8] = target: HIV-1 Env of isolate 92WR024 (HIV-1)
[9] = target: HIV-1 Env of isolate 93UG077 (HIV-1)
[10] = target: HIV-1 Env of isolate MGRM-A-012 (HIV-1)
[11] = target: HIV-1 Env of isolate MGRM-A-013 (HIV-1)
[12] = target: HIV-1 JR-CSF Env D417A (HIV-1 (isolate JR-CSF)) (UniProt P20871)
[13] = target: HIV-1 JR-CSF Env F210A (HIV-1 JR-CSF) (UniProt P20871)
[14] = target: HIV-1 JR-CSF Env H330A (HIV-1 isolate JR-CSF) (UniProt P20871)
[15] = target: HIV-1 JR-CSF Env I307A (HIV-1 JR-CSF) (UniProt P20871)
[16] = target: HIV-1 JR-CSF Env I309A (HIV-1 JR-CSF) (UniProt P20871)
[17] = target: HIV-1 JR-CSF Env I326A (HIV-1 isolate JR-CSF) (UniProt P20871)
[18] = target: HIV-1 JR-CSF Env I414A (HIV-1 (isolate JR-CSF)) (UniProt P20871)
[19] = target: HIV-1 JR-CSF Env I415A (HIV-1 (isolate JR-CSF)) (UniProt P20871)
[20] = target: HIV-1 JR-CSF Env I423A (HIV-1 (isolate JR-CSF)) (UniProt P20871)
[21] = target: HIV-1 JR-CSF Env K305A (HIV-1 JR-CSF) (UniProt P20871)
[22] = target: HIV-1 JR-CSF Env L416A (HIV-1 (isolate JR-CSF)) (UniProt P20871)
[23] = target: HIV-1 JR-CSF Env N355A (HIV-1 isolate JR-CSF) (UniProt P20871)
[24] = target: HIV-1 JR-CSF Env N396A (HIV-1 (isolate JR-CSF)) (UniProt P20871)
[25] = target: HIV-1 JR-CSF Env N411A (HIV-1 (isolate JR-CSF)) (UniProt P20871)
[26] = target: HIV-1 JR-CSF Env Q337A (HIV-1 isolate JR-CSF) (UniProt P20871)
[27] = target: HIV-1 JR-CSF Env Q422A (HIV-1 (isolate JR-CSF)) (UniProt P20871)
[28] = target: HIV-1 JR-CSF Env R304A (HIV-1 JR-CSF) (UniProt P20871)
[29] = target: HIV-1 JR-CSF Env R315A (HIV-1 isolate JR-CSF) (UniProt P20871)
[30] = target: HIV-1 JR-CSF Env R327A (HIV-1 isolate JR-CSF) (UniProt P20871)
[31] = target: HIV-1 JR-CSF Env R350A (HIV-1 isolate JR-CSF) (UniProt P20871)
[32] = target: HIV-1 JR-CSF Env S334A (HIV-1 isolate JR-CSF) (UniProt P20871)
[33] = target: HIV-1 JR-CSF Env S387A (HIV-1 (isolate JR-CSF)) (UniProt P20871)
[34] = target: HIV-1 JR-CSF Env S393A (HIV-1 (isolate JR-CSF)) (UniProt P20871)
[35] = target: HIV-1 JR-CSF Env T202A (HIV-1 JR-CSF) (UniProt P20871)
[36] = target: HIV-1 JR-CSF Env T319A (HIV-1 isolate JR-CSF) (UniProt P20871)
[37] = target: HIV-1 JR-CSF Env T341A (HIV-1 isolate JR-CSF) (UniProt P20871)
[38] = target: HIV-1 JR-CSF Env V292A (HIV-1 JR-CSF) (UniProt P20871)
[39] = target: HIV-1 JR-CSF Env W395A (HIV-1 (isolate JR-CSF)) (UniProt P20871)
[40] = target: HIV-1 MGRM-A-010 envelope glycoprotein (Env) (HIV-1)
[41] = target: HIV-1 MGRM-C-026 envelope glycoprotein (Env) (HIV-1)
[42] = target: HIV-1 MGRM-C-028 envelope glycoprotein (Env) (HIV-1)

B1: PGT-126 (antibody, V domains shown)
VH: QPQLQESGPGLVEASETLSLTCTVSGDSTAACDYFWGWVRQPPGKGLEWIGGLSHCAGYYNTGWTYHNPSLKSRLTISLDTPKNQVFLKLNSVTAADTAIYYCARFDGEVLVYHDWPKPAWVDLWGRGTLVTVSS
VL: QSALTQPPSASGSPGQSISISCTGTSNRFVSWYQQHPGKAPKLVIYGVNKRPSGVPDRFSGSKSGNTASLTVSGLQTDDEAVYYCSSLVGNWDVIFGGGTKLTVL
B1 was tested, and the Median IC50 against viruses neutralized with an IC50 <50 µg/ml [1] was 0.02 µg/mL, the Median IC50 against viruses neutralized with an IC50 <50 µg/ml [2] was 0.18 µg/mL and the Median IC50 against viruses neutralized with an IC50 <50 µg/ml [3] was 0.04 µg/mL. For the same binder, the IC50 neutralization [4] was 0.0256 µg/mL, the IC50 neutralization [5] was 0.501 µg/mL and the IC50 neutralization [6] was 0.0249 µg/mL. For the same binder, the IC50 (µg/mL), pseudovirus neutralization [7] was 0.006 µg/mL, the IC50 (µg/mL), pseudovirus neutralization [8] was 42 µg/mL and the IC50 (µg/mL), pseudovirus neutralization [9] was 0.02 µg/mL. The IC50 (µg/mL), pseudovirus neutralization [10] was 0.097 µg/mL, the IC50 (µg/mL), pseudovirus neutralization [11] was 0.006 µg/mL and the Fold IC50 increase relative to wild-type [12] was 1 fold. For the same binder, the Fold IC50 increase relative to wild-type [13] was 1.5 fold, the Fold IC50 increase relative to wild-type [14] was 0.5 fold and the Fold IC50 increase relative to wild-type [15] was 1.8 fold. For the same binder, the Fold IC50 increase relative to wild-type [16] was 1.2 fold, the Fold IC50 increase relative to wild-type [17] was 0.8 fold and the Fold IC50 increase relative to wild-type [18] was 0.4 fold. The Fold IC50 increase relative to wild-type [19] was 0.3 fold, the Fold IC50 increase relative to wild-type [20] was 1.1 fold and the Fold IC50 increase relative to wild-type [21] was 1 fold. The Fold IC50 increase relative to wild-type [22] was 0.8 fold, the Fold IC50 increase relative to wild-type [23] was 0.2 fold and the Fold IC50 increase relative to wild-type [24] was 1.7 fold. The Fold IC50 increase relative to wild-type [25] was 0.7 fold, the Fold IC50 increase relative to wild-type [26] was 0.4 fold and the Fold IC50 increase relative to wild-type [27] was 1.1 fold. For the same binder, the Fold IC50 increase relative to wild-type [28] was 1.8 fold, the Fold IC50 increase relative to wild-type [29] was 1 fold and the Fold IC50 increase relative to wild-type [30] was 2.2 fold. The Fold IC50 increase relative to wild-type [31] was 0.7 fold, the Fold IC50 increase relative to wild-type [32] was greater than 30 fold and the Fold IC50 increase relative to wild-type [33] was 0.6 fold. It also gave a Fold IC50 increase relative to wild-type [34] of 0.5 fold, a Fold IC50 increase relative to wild-type [35] of 0.8 fold and a Fold IC50 increase relative to wild-type [36] of 0.8 fold. For the same binder, the Fold IC50 increase relative to wild-type [37] was 0.5 fold, the Fold IC50 increase relative to wild-type [38] was 5 fold and the Fold IC50 increase relative to wild-type [39] was 0.6 fold. It also gave an IC50 neutralization [40] of 0.0033 µg/mL, an IC50 neutralization [41] of 0.0076 µg/mL and an IC50 neutralization [42] of 0.283 µg/mL.

Source: patent US20200024330A1
